Experimental data published in patent US20110243928A1.

Assays:
16 mer peptide 40 = target: T1, 16 mer peptide 40; assay: 16 mer peptide ELISA
T1 sequence (peptide, N-terminal biotin; C-terminal amide): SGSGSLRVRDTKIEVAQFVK

16 mer peptide 41 = assay: 16 mer peptide ELISA
Chain of 16 mer peptide 41 (peptide, as listed by the source limits assumed): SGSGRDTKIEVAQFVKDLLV

B1: monoclonal antibody 6A1 (antibody, IgG1, V domains shown)
VH: EIQLQQSVAELVRPGASVRLSCTASGFYIKDTYMHWVIQRPEQGLEWIGTIDPANGNTKYVPKFQGKATITADTSSNTAYLRLSSLTSEDTAIYYCARSIYDDYHYDDYYAMDYWGQGTSVTVSS
VL: DVLMTQTPLSLPVSLGDQASISCRSSQNIVHINGNTYLEWYLQKPGQSPKLLIYKISDRFSGVPDRFSGSGSGTDFTLKISRVEAEDLGVYYCFQGSHVPWTFGGGTKLEIK
absorbance at 490 nm (16 mer peptide 40): 0.06 A490
absorbance at 490 nm (16 mer peptide 41): 0.058 A490
